Source: US20040138122A1

How the values were obtained:
Assay in all cases: cell-based or functional assay
[1] = biological target: T1, zcyto20 (human IL-28A) (human) (UniProt Q8IZJ0)
T1 sequence: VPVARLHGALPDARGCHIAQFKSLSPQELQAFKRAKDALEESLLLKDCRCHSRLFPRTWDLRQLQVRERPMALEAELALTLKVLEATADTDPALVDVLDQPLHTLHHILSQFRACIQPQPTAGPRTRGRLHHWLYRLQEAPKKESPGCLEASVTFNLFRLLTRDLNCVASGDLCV

[2] = biological target: T2, zcyto24 (mouse IL-28A) (mouse) (UniProt Q4VK74)
T2 sequence: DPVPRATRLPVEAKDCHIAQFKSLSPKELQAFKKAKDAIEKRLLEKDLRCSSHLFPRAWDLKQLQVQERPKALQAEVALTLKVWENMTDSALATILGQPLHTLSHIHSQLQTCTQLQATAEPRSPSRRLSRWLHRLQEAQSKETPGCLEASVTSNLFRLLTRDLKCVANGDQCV

[3] = biological target: zcyto21 (human IL-29) (human) (UniProt Q8IU54)
Sequence of zcyto21 (human IL-29) (human) (Q8IU54 20-200): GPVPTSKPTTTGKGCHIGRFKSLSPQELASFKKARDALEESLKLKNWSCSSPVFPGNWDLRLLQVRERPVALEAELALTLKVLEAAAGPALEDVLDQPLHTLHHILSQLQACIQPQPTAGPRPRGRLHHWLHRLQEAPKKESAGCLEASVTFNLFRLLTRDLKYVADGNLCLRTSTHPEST

Percent Inhibition of Ligand-induced Interferon Stimulated Response Element (ISRE) Signaling by Soluble Receptors [1]: 92%
Percent Inhibition of Ligand-induced Interferon Stimulated Response Element (ISRE) Signaling by Soluble Receptors [2]: 90%
Percent Inhibition of Ligand-induced Interferon Stimulated Response Element (ISRE) Signaling by Soluble Receptors [3]: 45%
B1: human zcytor19-Fc homodimer (Fc fusion, not shown: a dimerising Fc or GST)
chain: RPRLAPPQNVTLLSQNFSVYLTWLPGLGNPQDVTYFVAYQSSPTRRRWREVEECAGTKELLCSMMCLKKQDLYNKFKGRVRTVSPSSKSPWVESEYLDYLFEVEPAPPVLVLTQTEEILSANATYQLPPCMPPLDLKYEVAFWKEGAGNKTLFPVTPHGQPVQITLQPAASEHHCLSARTIYTFSVPKYSKFSKPTCFLLEVPEAN
